Values of other authors, collected in article PMC12692597.

Molecular target: IL-13 (Homo sapiens) (UniProt P35225)
Chain of UniProt P35225 (P35225 25-146): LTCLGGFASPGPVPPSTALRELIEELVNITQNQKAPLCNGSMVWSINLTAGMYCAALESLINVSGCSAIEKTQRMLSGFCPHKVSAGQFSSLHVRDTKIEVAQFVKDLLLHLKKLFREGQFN

For IL-13Rα2 (from UniProt Q14627), the Kd is listed as 20 pM.
